Measured values: the supplement of paper PMC10126150
± gives the standard deviation of the averaged measurements.

test system: ATP; experiment: switch fluorescence ratio, 500 uM ATP over buffer (Cy3 cluster intensity, sum of 5 cycles each) (fold (ratio)); higher = stronger signal-on switching upon ATP binding; sequences stand for … in TCGTCGGCAGCGTCAGATGTGTATAAGAGACAGTTTTTTTTTTTTTTTTTTTTTTTTT…TC; conditions: aptamer strand: ATP DNA aptamer (quencher-CACCTGGGGGAGTATTGCGGAGGAAGG + anchor), 100 nM annealed; ATP concentration: 500 uM
Outline: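 Exposure to 500 uM ATP lasted 15 min at 22 °C before imaging, and a selection-buffer image was taken beforehand, for Cy3-labelled switching-strand clusters on a modified Illumina MiSeq flow-cell annealed to 100 nM quencher-labelled ATP aptamer. Five buffer/ATP cycles were run with NaOH stripping and re-annealing between them. The fluorescence ratio per cluster is summed target-cycle over summed buffer-cycle Cy3 intensity, averaged per switch-domain sequence. Clusters outside 100-1000 RFU were excluded.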

| Sequence | switch fluorescence ratio |
| --- | --- |
| TTTTGCAAAT | 1.13 ± 0.11 |
| TTTTGCACTT | 1.022 ± 0.0012 |
| TTTTGCAGGA | 1.05 ± 0.14 |
| TTTTGCATTG | 1.07 ± 0.058 |
| TTTTGCCGTT | 1.01 ± 0.019 |
| TTTTGCGAAC | 1.94 ± 1.2 |
| TTTTGCGATT | 1.015 ± 0.0065 |
| TTTTGCGCCG | 1.06 ± 0.06 |
| TTTTGCGGGA | 1.01 ± 0.057 |
| TTTTGCGTCT | 1.06 ± 0.071 |
| TTTTGCTGTA | 1.04 ± 0.099 |
| TTTTGCTTGT | 0.996 ± 0.015 |
| TTTTGCTTTT | 0.998 ± 0.027 |
| TTTTGGAACG | 0.99 ± 0.031 |
| TTTTGGAAGC | 1.03 ± 0.034 |
| TTTTGGAAGT | 0.993 ± 0.042 |
| TTTTGGACGC | 1.26 ± 0.43 |
| TTTTGGATAA | 1.016 ± 0.0051 |
| TTTTGGATGC | 1.05 ± 0.045 |
| TTTTGGCAAC | 1.04 ± 0.079 |
| TTTTGGCCGT | 1.1 ± 0.15 |
| TTTTGGCCTT | 0.997 ± 0.015 |

| Sequence | switch fluorescence ratio |
| --- | --- |
| TTTTGGCGCA | 1.01 ± 0.0046 |
| TTTTGGCGCT | 1.005 ± 0.008 |
| TTTTGGCGTA | 1.04 ± 0.037 |
| TTTTGGGCCC | 1.04 ± 0.076 |
| TTTTGGGCTT | 1.12 ± 0.22 |
| TTTTGGGGC | 1.04 ± 0.013 |
| TTTTGGGGGG | 1.02 ± 0.081 |
| TTTTGGGTCC | 1.06 ± 0.04 |
| TTTTGGGTTA | 0.992 ± 0.043 |
| TTTTGGGTTG | 1.03 ± 0.076 |
| TTTTGGTATA | 1.05 ± 0.055 |
| TTTTGGTCCG | 1.034 ± 0.0074 |
| TTTTGGTGG | 0.974 ± 0.033 |
| TTTTGGTTAG | 0.983 ± 0.015 |
| TTTTGGTTTG | 1 ± 0.034 |
| TTTTGTACGC | 1.097 ± 0.0065 |
| TTTTGTAGCT | 0.963 ± 0.023 |
| TTTTGTCAAA | 1.02 ± 0.035 |
| TTTTGTCACT | 1.034 ± 0.0031 |
| TTTTGTGTTC | 0.993 ± 0.027 |
| TTTTGTTAGA | 1.03 ± 0.022 |
| TTTTGTTGTG | 0.999 ± 0.034 |

| Sequence | switch fluorescence ratio |
| --- | --- |
| TTTTGTTTCA | 1 ± 0.022 |
| TTTTGTTTCG | 1.01 ± 0.028 |
| TTTTGTTTGT | 1.01 ± 0.037 |
| TTTTGTTTT | 1.02 ± 0.027 |
| TTTTGTTTTC | 1.11 ± 0.23 |
| TTTTTAAA | 0.988 ± 0.017 |
| TTTTTAAAGT | 0.993 ± 0.026 |
| TTTTTAACTC | 1.03 ± 0.021 |
| TTTTTAAGAG | 1 ± 0.014 |
| TTTTTAAGGA | 1.04 ± 0.048 |
| TTTTTAAGGT | 1 ± 0.015 |
| TTTTTAATGT | 0.998 ± 0.062 |
| TTTTTACAGA | 1.04 ± 0.025 |
| TTTTTACCTT | 1.07 ± 0.046 |
| TTTTTACGAA | 1.01 ± 0.022 |
| TTTTTACGGC | 1.02 ± 0.016 |
| TTTTTACTGT | 1.01 ± 0.017 |
| TTTTTAGAAG | 0.985 ± 0.01 |
| TTTTTAGGAA | 1.04 ± 0.055 |
| TTTTTAGGAT | 1.11 ± 0.17 |
| TTTTTAGTAT | 1.01 ± 0.035 |
| TTTTTATCAT | 0.998 ± 0.037 |

| Sequence | switch fluorescence ratio |
| --- | --- |
| TTTTTATCTG | 0.9654 ± 0.002 |
| TTTTTATGAC | 1.01 ± 0.029 |
| TTTTTATGAT | 0.983 ± 0.022 |
| TTTTTATGC | 0.975 ± 0.071 |
| TTTTTATGCC | 0.963 ± 0.05 |
| TTTTTATGCG | 0.999 ± 0.06 |
| TTTTTATTAG | 0.983 ± 0.027 |
| TTTTTATTGC | 1 ± 0.035 |
| TTTTTCAACC | 1.02 ± 0.017 |
| TTTTTCAAGT | 1.1 ± 0.29 |
| TTTTTCACGC | 1.04 ± 0.019 |
| TTTTTCAGTG | 0.991 ± 0.039 |
| TTTTTCCAT | 1 ± 0.02 |
| TTTTTCCATT | 1.01 ± 0.027 |
| TTTTTCCTGT | 1.01 ± 0.011 |
| TTTTTCCTTG | 1.04 ± 0.018 |
| TTTTTCCTTT | 1.02 ± 0.033 |
| TTTTTCGCTT | 1.06 ± 0.077 |
| TTTTTCGTCA | 1.037 ± 0.0074 |
| TTTTTCGTGT | 0.975 ± 0.038 |
| TTTTTCTATT | 0.988 ± 0.019 |
| TTTTTCTTCG | 1.21 ± 0.099 |

| Sequence | switch fluorescence ratio |
| --- | --- |
| TTTTTCTTTG | 1.04 ± 0.065 |
| TTTTTGACAC | 1.26 ± 0.38 |
| TTTTTGAGAG | 0.998 ± 0.032 |
| TTTTTGAGC | 1.011 ± 0.0086 |
| TTTTTGAGGA | 0.995 ± 0.017 |
| TTTTTGCCTA | 1.015 ± 0.0089 |
| TTTTTGCGCT | 1.04 ± 0.047 |
| TTTTTGCTAG | 0.986 ± 0.013 |
| TTTTTGCTCA | 0.9912 ± 0.0055 |
| TTTTTGCTGT | 2.91 ± 3.3 |
| TTTTTGCTTT | 1.06 ± 0.099 |
| TTTTTGGCAT | 1.01 ± 0.033 |
| TTTTTGGCGC | 1.01 ± 0.032 |
| TTTTTGGGTT | 1.02 ± 0.048 |
| TTTTTGGTAT | 1.01 ± 0.047 |
| TTTTTGGTTA | 1 ± 0.016 |
| TTTTTGTAAT | 1.04 ± 0.055 |
| TTTTTGTATA | 0.979 ± 0.027 |
| TTTTTGTATT | 1.03 ± 0.02 |
| TTTTTGTGA | 0.995 ± 0.026 |
| TTTTTGTTC | 0.99 ± 0.023 |
| TTTTTTACGG | 1.02 ± 0.019 |

| Sequence | switch fluorescence ratio |
| --- | --- |
| TTTTTTAGGA | 1.01 ± 0.019 |
| TTTTTTAGGG | 0.988 ± 0.029 |
| TTTTTTATAT | 0.987 ± 0.025 |
| TTTTTTATCA | 0.98 ± 0.029 |
| TTTTTTCATG | 0.988 ± 0.033 |
| TTTTTTCGGC | 0.988 ± 0.022 |
| TTTTTTCGTC | 1.02 ± 0.011 |
| TTTTTTGGAT | 1.01 ± 0.022 |
| TTTTTTGGGC | 0.99 ± 0.068 |
| TTTTTTGTCG | 0.993 ± 0.053 |
| TTTTTTGTGA | 1 ± 0.08 |
| TTTTTTGTGG | 0.978 ± 0.031 |
| TTTTTTTAAC | 0.999 ± 0.032 |
| TTTTTTTACC | 1.01 ± 0.021 |
| TTTTTTTACT | 1.02 ± 0.029 |
| TTTTTTTAGA | 0.995 ± 0.022 |
| TTTTTTTAT | 1.014 ± 0.01 |
| TTTTTTTCTC | 0.992 ± 0.056 |
| TTTTTTTTAT | 1 ± 0.024 |
| TTTTTTTTC | 1.045 ± 0.0071 |
| TTTTTTTTCA | 1.01 ± 0.053 |
